Reference: paper PMC3088832

Target: Purified recombinant HIV gp120, biotinylated (HIV) (UniProt P04578)
Test: SPR

soluble recombinant human DC-SIGN extracellular domain (from UniProt Q9NNX6 59-404) (domain or fragment)
percent less binding in 20 mM glucose than in 5 mM glucose: 33%
